Numbering of substitutions follows the chain as printed. Names and notes keep the numbering of the source.
T1: membrane-bound human TL1A (Met and FLAG tag at the N-terminus) on CHO-K1 cells (human, UniProt O95150 2-251)
T1 construct: also called TL1A/CHO
T1 sequence: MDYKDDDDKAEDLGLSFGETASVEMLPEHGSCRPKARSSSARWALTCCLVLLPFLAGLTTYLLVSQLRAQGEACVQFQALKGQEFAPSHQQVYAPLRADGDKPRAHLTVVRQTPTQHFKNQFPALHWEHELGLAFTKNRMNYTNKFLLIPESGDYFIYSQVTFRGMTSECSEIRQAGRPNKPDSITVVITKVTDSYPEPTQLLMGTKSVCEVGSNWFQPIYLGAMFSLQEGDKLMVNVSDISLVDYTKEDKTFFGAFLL

T2: soluble recombinant of human TL1A (His6, GS linker, Leu72-Leu251) (human, UniProt O95150 72-251)
T2 construct: also called His6-TL1A; hTL1A
T2 sequence: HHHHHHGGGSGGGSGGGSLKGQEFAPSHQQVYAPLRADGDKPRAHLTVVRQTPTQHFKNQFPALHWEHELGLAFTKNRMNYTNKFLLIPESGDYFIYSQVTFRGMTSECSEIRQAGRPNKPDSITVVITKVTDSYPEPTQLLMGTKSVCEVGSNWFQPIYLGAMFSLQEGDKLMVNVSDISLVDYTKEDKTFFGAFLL

T3: soluble recombinant of cynomolgus monkey TL1A (His6, GS linker, Leu72-Leu251) (cynomolgus monkey)
T3 construct: also called His6-cynoTL1A
T3 chain: T2 sequence with F57L, I96V

T4: soluble recombinant of cynomolgus monkey FasL (His6, Pro133-Leu280) (cynomolgus monkey, UniProt P63308 133-280)
T4 construct: also called His6-cynoFasL
T4 sequence: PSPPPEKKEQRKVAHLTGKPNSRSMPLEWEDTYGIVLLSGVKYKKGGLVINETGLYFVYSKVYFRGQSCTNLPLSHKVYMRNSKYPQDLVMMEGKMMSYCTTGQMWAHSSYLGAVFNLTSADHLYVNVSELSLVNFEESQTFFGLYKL

T5: FLAG-cynoLIGHT (FLAG tag, cynomolgus monkey LIGHT Asp74-Val240) (cynomolgus monkey)
T5 construct: SEC trimer fraction; also called soluble cynomolgus monkey LIGHT trimer
T5 chain: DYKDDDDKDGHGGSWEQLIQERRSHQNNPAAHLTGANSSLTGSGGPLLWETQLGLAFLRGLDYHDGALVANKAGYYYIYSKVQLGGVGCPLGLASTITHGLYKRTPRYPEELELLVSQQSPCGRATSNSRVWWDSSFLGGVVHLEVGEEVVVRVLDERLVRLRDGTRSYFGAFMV

T6: soluble recombinant of cynomolgus monkey LIGHT (His10, GS linker, Asp74-Val240)
T6 chain: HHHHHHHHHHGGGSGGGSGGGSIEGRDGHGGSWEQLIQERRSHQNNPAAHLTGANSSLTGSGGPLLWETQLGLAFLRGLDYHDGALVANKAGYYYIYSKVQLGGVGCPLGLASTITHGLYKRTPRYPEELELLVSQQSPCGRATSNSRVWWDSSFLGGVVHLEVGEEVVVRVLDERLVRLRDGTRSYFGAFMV

T7: soluble recombinant of cynomolgus monkey FasL (His6, Pro133-Leu280) (UniProt P63308 133-280)
T7 chain: T4 sequence

T8: soluble recombinant of cynomolgus monkey TL1A (His6, GS linker, Leu72-Leu251)
T8 chain: T2 sequence with F57L, I96V

B1: chimera A-E57K_R58D-Fc (Eg1S LALAGANA) (Fc fusion)
chain: ETFPPKYLHYDEETSHQLLCDKCPPGTYLKQHCTAKWKTVCAPCPPRHYTQFWNYLKDCRYCNVLCGEREEEARACHATHNRACRCRTGFFAHAGFCLEHASCPPGAGVIAPGTPSQNTQCQPCPDGFFSNETSSKAPCRKHTNCSVFGLLLTQKGNATHDNICSGNSESTQKEPKSSDKTHTCPPCPAPEAAGAPSVFLFPPKPKDTLMISRTPEVTCVVVDVSHEDPEVKFNWYVDGVEVHNAKTKPREEQYNSTYRVVSVLTVLHQDWLNGKEYKCKVSNKALPAPIEKTISKAKGQPREPQVYTLPPSRDELTKNQVSLTCLVKGFYPSDIAVEWESNGQPENNYKTTPPVLDSDGSFFLYSKLTVDKSRWQQGNVFSCSVMHEALHAHYTQKSLSLSPGK
B2: chimera A-Fc (Eg1S LALAGANA) (Fc fusion)
chain: B1 chain with K57E, D58R
B3: chimera A-Fc (Eg1S YTE) (Fc fusion)
chain: B1 chain with K57E, D58R, A192L, A193L, A195G, M210Y, S212T, T214E, A392N
B4: chimera A-E57V-Fc (Eg1S YTE) (Fc fusion)
chain: B1 chain with K57V, D58R, A192L, A193L, A195G, M210Y, S212T, T214E, A392N
B5: chimera A-E57K-Fc (Eg1S YTE) (Fc fusion)
chain: B1 chain with D58R, A192L, A193L, A195G, M210Y, S212T, T214E, A392N
B6: chimera A-E57V-Fc (Eg1S LALAGANA) (Fc fusion)
chain: B1 chain with K57V, D58R
B7: chimera A-E57R-Fc (Eg1S YTE) (Fc fusion)
chain: B1 chain with K57R, D58R, A192L, A193L, A195G, M210Y, S212T, T214E, A392N
B8: chimera A-E57K-Fc (Eg1S LALAGANA) (Fc fusion)
chain: B1 chain with D58R
B9: chimera A-E57K_R58E-Fc (Eg1S LALAGANA) (Fc fusion)
chain: B1 chain with D58E
B10: chimera A-E57K_R58E-Fc (Eg1S YTE) (Fc fusion)
chain: B1 chain with D58E, A192L, A193L, A195G, M210Y, S212T, T214E, A392N
notes: also called 45-18-Fc (Eg1S YTE)
B11: chimera A-E57K_R58D-Fc (Eg1S YTE) (Fc fusion)
chain: B1 chain with A192L, A193L, A195G, M210Y, S212T, T214E, A392N
notes: also called 45-10-Fc (Eg1S YTE)

Molecular target: T9, membrane-bound human LIGHT (human, UniProt O43557 1-240)
T9 construct: whole, on cells; also called LIGHT/HEK293
T9 sequence (O43557 whole entry): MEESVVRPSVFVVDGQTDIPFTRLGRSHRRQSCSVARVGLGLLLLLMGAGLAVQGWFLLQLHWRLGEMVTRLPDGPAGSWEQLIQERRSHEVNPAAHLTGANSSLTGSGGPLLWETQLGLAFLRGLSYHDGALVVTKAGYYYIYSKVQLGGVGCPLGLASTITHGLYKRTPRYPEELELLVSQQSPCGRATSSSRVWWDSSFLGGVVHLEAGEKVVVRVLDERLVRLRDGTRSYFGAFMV
Assay: flow cytometry on expressing cells
Summary of the method: (§1)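 Binding was measured by flow cytometry on HEK293 cells forced to express membrane-bound LIGHT and on cell lines expressing N-terminally Met/FLAG-tagged TL1A or FasL from a CMV-promoter pClpuro vector. Cells at 1×10⁵ cells/well received 1 or 10 μg/mL protein on ice for 1 hour. After washing, cells were stained on ice for 1 hour with LIVE/DEAD Fixable Aqua and R-phycoerythrin goat F(ab′)₂ anti-human IgG (10 ng/mL, 0.1 or 1 μg/mL). Fluorescence was read on a FACS Fortessa.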

binding result | Binder
binds | B1
binds | B2
binds | B3
binds | B4
binds | B5
binds | B6
binds | B7
binds | B8
binds | B9
binds | B10
binds | B11

Molecular target: T1, membrane-bound human TL1A (Met and FLAG …)
Assay: flow cytometry on expressing cells
Summary of the method: as §1

binding result | Binder
binds | B1
binds | B2
binds | B3
binds | B4
binds | B5
binds | B6
binds | B7
binds | B8
binds | B9
binds | B10
binds | B11

Molecular target: T2, soluble recombinant of human TL1A …
Assay: SPR, binder captured on Protein A chip
Experimental: (§2) The binding activity to human and cynomolgus monkey DcR3 ligand trimers were analyzed by the SPR method. BIAcore T-100 (GE Healthcare) was used for measurement of the binding activities to human LIGHT, cynomolgus monkey LIGHT, human TL1A and cynomolgus monkey TL1A, and BIAcore T-200 (GE Healthcare) was used for measurement of the binding activities to human FasL and cynomolgus monkey FasL. As the buffer, HBS-EP+Buffer was used.
(§3) Various DcR3 variants were injected into Series S Sensor Chip Protein A (GE Healthcare) at 10 μL/min for 30 seconds and captured. Meanwhile, the buffer containing no protein was injected into a reference flow cell. Thereafter, as an analyte, each human DcR3 ligand trimer or each cynomolgus monkey DcR3 ligand trimer diluted to 0.08 to 20 nmol/L was injected. A human LIGHT trimer, a human TL1A trimer or each cynomolgus monkey DcR3 ligand trimer was injected at the flow rate of 30 μL/min for 2 minutes to monitor the binding, and subsequently the buffer was injected for 5 minutes to monitor dissociation. A human FasL trimer was injected at 30 μL/min for 1 minute to monitor the binding, and subsequently the buffer was injected for 3 minutes to monitor dissociation. Then, 3 mol/L magnesium chloride was injected at 30 μL/min for 1 minute to perform a regeneration reaction.

binding result | Binder
binds | B1
binds | B2
binds | B3
binds | B4
binds | B5
binds | B6
binds | B7
binds | B8
binds | B9
binds | B10
binds | B11

Molecular target: T3, soluble recombinant of cynomolgus …
Assay: SPR, binder captured on Protein A chip
Experimental: as §2, §3

binding result | Binder
binds | B1
binds | B2
binds | B3
binds | B4
binds | B5
binds | B6
binds | B7
binds | B8
binds | B9
binds | B10
binds | B11

Molecular target: T4, soluble recombinant of cynomolgus …
Assay: SPR, binder captured on Protein A chip
Experimental: as §2, §3

binding result | Binder
binds | B1
binds | B2
binds | B3
binds | B4
binds | B5
binds | B6
binds | B7
binds | B8
binds | B9
binds | B10
binds | B11

Molecular target: T10, FLAG-LIGHT (FLAG tag, human LIGHT Asp74-Val240) (human, UniProt O43557 74-240)
T10 construct: SEC trimer fraction; also called soluble recombinant FLAG-LIGHT trimer; soluble human LIGHT trimer
Assay: SPR, binder captured on Protein A chip
Experimental: as §2, §3

binding result | Binder
binds | B1
binds | B2
binds | B3
binds | B4
binds | B5
binds | B6
binds | B7
binds | B8
binds | B9
binds | B10
binds | B11

Molecular target: T5, FLAG-cynoLIGHT (FLAG tag, cynomolgus …)
Assay: SPR, binder captured on Protein A chip
Experimental: as §2, §3

binding result | Binder
binds | B1
binds | B2
binds | B3
binds | B4
binds | B5
binds | B6
binds | B7
binds | B8
binds | B9
binds | B10
binds | B11

Molecular target: T6, soluble recombinant of cynomolgus …
Assay: BIAcore SPR
Summary of the method: (§4)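 Surface plasmon resonance was used to analyse how each test molecule bound to soluble recombinant His-tagged LIGHT, TL1A or FasL of human or cynomolgus monkey origin. Runs took place in HBS-EP+ Buffer on a BIAcore T-100 or T-200 instrument (GE Healthcare). The dissociation constant (Kd, nM) was obtained from these measurements.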

Kd [nM] | Binder
0.3 | B1
0.21 | B2
0.28 | B3
0.34 | B4
0.26 | B5
0.35 | B6
0.3 | B7
0.28 | B8
0.28 | B9
0.35 | B10
0.31 | B11

Molecular target: T7, soluble recombinant of cynomolgus …
Assay: BIAcore SPR
Summary of the method: as §4

Kd [nM] | Binder
0.96 | B1
0.22 | B2
0.27 | B3
1.1 | B4
1.1 | B5
1.1 | B6
1.2 | B7
1.1 | B8
0.99 | B9
1.2 | B10
1.2 | B11

Molecular target: T8, soluble recombinant of cynomolgus …
Assay: BIAcore SPR
Summary of the method: as §4

Kd [nM] | Binder
0.19 | B1
0.11 | B2
0.17 | B3
0.22 | B4
0.31 | B5
0.21 | B6
0.36 | B7
0.27 | B8
0.17 | B9
0.21 | B10
0.25 | B11

— patent US20220340642A1 (Kyowa Kirin, published 2022)
